Columns and labels:
[1] = molecular target: T1, NCoA-1 PAS-B domain fragment 257–385 (human, UniProt Q15788 257-385); assay: NMR titration
T1 sequence: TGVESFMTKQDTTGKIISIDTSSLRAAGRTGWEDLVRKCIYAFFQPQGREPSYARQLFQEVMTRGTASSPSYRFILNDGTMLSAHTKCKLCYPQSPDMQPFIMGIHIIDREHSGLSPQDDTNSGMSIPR

[2] = molecular target: T2, GST fusion protein of the NCoA-1 PAS-B domain, hNCoA-1 (260–370) (human, UniProt Q15788 260-370); assay: pull-down
T2 sequence: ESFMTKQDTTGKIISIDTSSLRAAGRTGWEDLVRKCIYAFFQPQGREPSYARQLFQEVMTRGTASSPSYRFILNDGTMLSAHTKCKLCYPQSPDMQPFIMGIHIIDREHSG

EDQCISSQLDELLCPPTTVEG [peptide representing LXXLL motif 4 of human NCoA-1]
binding result [1]: binds | binding result [2]: binds

EGRNDEKALLEQLVSFLSGKD [peptide representing LXXLL motif 5 of human NCoA-1]
binding result [1]: binds | binding result [2]: binds

LLPPTEQDLTKLLLEGQGESG [human STAT6 motif peptide, STAT6 (794–814)]
binding result [1]: binds | binding result [2]: binds

— article PMC2330239 (Nucleic Acids Research, 2008)
